Values belong to the molecule of their own block, whether it stands above or below them.
Assays:
hIL-1α [1] = target: T1, hIL-1α (Homo sapiens, UniProt P01583); assay: Tetravalent dual-specific antigen binding by Biacore (sequential antigen injection), hIL-1α; settings: for Response Unit, 1st antigen hIL-1α: hIL-1α injected as 1st antigen on captured DVD-Ig; for Response Unit, 2nd antigen hIL-1α: hIL-1α injected as 2nd antigen after hIL-1β
T1 sequence (P01583 113-271): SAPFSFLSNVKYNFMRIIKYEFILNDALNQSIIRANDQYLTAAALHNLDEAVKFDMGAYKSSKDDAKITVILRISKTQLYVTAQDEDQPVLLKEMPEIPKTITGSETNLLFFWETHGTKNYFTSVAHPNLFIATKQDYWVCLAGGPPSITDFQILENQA
Method: (§1) The kinetics of DVD-Ig molecules binding to rhIL1-α and rhIL1-β was determined by surface plasmon resonance-based measurements with a Biacore 3000 instrument (Biacore AB, Uppsala, Sweden) using HBS-EP (10 mM HEPES, pH 7.4, 150 mM NaCl, 3 mM EDTA, and 0.005% surfactant P20) at 25° C. All chemicals were obtained from Biacore AB (Uppsala, Sweden) or otherwise from a different source as described herein. Approximately, 5000 RU of goat anti-human IgG Fcγ fragment specific polyclonal antibody (Pierce Biotechnology Inc, Rockford, Ill.) diluted in 10 mM sodium acetate (pH 4.5) was directly immobilized across a CM5 research grade biosensor chip using a standard amine coupling kit according to manufacturer's instructions and procedures at […]. Unreacted moieties on the biosensor surface were blocked with ethanolamine. Modified carboxymethyl dextran surface in flowcell 2 and 4 was used as a reaction surface. Unmodified carboxymethyl dextran without goat anti-human IgG in flow cell 1 and 3 was used as the reference surface. For kinetic analysis, rate equations derived from the 1:1 Langmuir binding model were fitted simultaneously to association and dissociation phases of all ten injections (using global fit analysis) using the Bioevaluation 4.0.1 software. Purified DVD-Ig samples were diluted in HEPES-buffered saline for capture across goat anti-human IgG Fc specific reaction surfaces and injected over reaction matrices at a flow rate of […]. The association and dissociation rate constants, kon (M-1s-1) and koff (s-1) were determined under a continuous flow rate of […]. Rate constants were derived by making kinetic binding measurements at ten different antigen concentrations ranging from 1.25 to 1000 nM. The equilibrium dissociation constant (M) of the reaction between DVD-Ig molecule and rhIL1α/β was then calculated from the kinetic rate constants by the following formula: KD=koff/kon. Aliquots of rhIL1α/β samples were also simultaneously injected over a blank reference and reaction CM surface to record and subtract any nonspecific binding background to eliminate the majority of the refractive index change and injection noise. Surfaces were regenerated with two subsequent […] injections of 10 mM Glycine (pH 1.5) at a flow rate of […]. The anti-Fc antibody immobilized surfaces were completely regenerated and retained their full capture capacity over twelve cycles. The apparent stoichiometry of the captured DVD-Ig-rhIL1α/β complex was calculated under saturating binding conditions (steady-state equilibrium) using the following formula: […]
In addition, tetravalent dual-specific antigen binding of DVD-Ig binding protein was also analyzed by Biacore (Table 14). DVD-Ig binding protein was first captured via a goat anti-human Fc antibody on the Biacore sensor chip, and the first antigen was injected and a binding signal observed. As the DVD-Ig binding protein was saturated by the first antigen, the second antigen was then injected and the second signal observed. This was done either by first injecting IL-1β then IL-1α or by first injecting IL-1α followed by IL-1β for DVD2-Ig binding protein. In either sequence, a dual-binding activity was detected. Similar results were obtained for DVD1-Ig binding protein. Thus, each DVD-Ig binding protein was able to bind both antigens simultaneously as a dual-specific tetravalent molecule. […] Upon the injection of the second antigen, while DVD-Ig binding protein was already occupied by the first antigen, the stoichiometry of both DVD-Igs binding protein to the second antigen (i.e., hIL-1α or hIL-1β was between 1.0 and 1.3. Thus, DVD-Ig binding protein was able to bind two IL-1α and two IL-β molecules. DVD-Ig binding protein was first captured via a goat anti-human Fc antibody on the Biacore sensor chip, and the first antigen was injected and a binding signal observed, followed by the injection of the second antigen.

hIL-1α [2] = target: T1, hIL-1α; assay: MRC-5 bioassay: neutralization of hIL-1α-induced IL-8 production; type: cell-based; settings: for IC50: antigen hIL-1α, read-out: Potency IC50
Method: (§2) The MRC-5 cell line is a human lung fibroblast cell line that produces IL-8 in response to human IL-1α and IL-1β in a dose-dependent manner (see, Dinarello, Muegge, and Durum (2000) Curr. Protocols Immunol. 6:1). MRC-5 cells were cultured in 10% FBS complete MEM and grown at 37° C. in a 5% CO2 incubator. […] The supernatants were harvested, diluted, and IL-8 concentrations measured by ELISA using a standard IL-8 ELISA kit (R&D Systems). Antibody potency was determined by its ability to inhibit IL-8 production by MRC-5 cells.
(§3) The biological activity of DVD-Ig was measured using MRC-5 bioassay. The MRC-5 cell line is a human lung fibroblast cell line that produces IL-8 in response to human IL-1α and IL-1β in a dose-dependent manner. MRC-5 cells were obtained from ATCC and cultured in 10% FBS complete MEM at 37° C. in a 5% CO2 incubator. To determine neutralizing activity of the DVD-Ig against human IL-1α or IL-1β, 50 μl of antibody (1×10^−7 to 1×10^−12 M) in MEM/10% FBS was added to a 96 well plate and pre-incubated with 50 μl of hIL-1α or hIL-1β (200 pg/ml) for 1 hour at 37° C., 5% CO2. MRC-5 cells at a concentration of 1×10^5/ml were then added (100 μl) to all wells, and the plates were incubated overnight at 37° C. in a 5% CO2 incubator. The supernatants were harvested and human IL-8 production measured by standard ELISA (R&D Systems, Minneapolis, Minn.). Neutralizing activity of the DVD-Ig binding protein was determined by its ability to inhibit IL-8 production.

hIL-1β [3] = target: T2, hIL-1β (Homo sapiens, UniProt P01584); assay: MRC-5 bioassay: neutralization of hIL-1β-induced IL-8 production; type: cell-based
Method: as §2
as §3, with “MRC-5 cells at a concentration of 1×10^5/ml were then added (100 μl) to all wells, and the plates were incubated overnight at 37° C. in a 5% CO2 incubator.” left out

hIL-1β [4] = target: T2, hIL-1β; assay: Surface plasmon resonance (Biacore) binding kinetics and affinity to hIL-1β; settings: for koff / kon / Kd / Stoichiometry: antigen hIL-1β; for Kd: KD=koff/kon; for Stoichiometry: saturating binding conditions
Method: as §1

[5] = hIL-1α injected as 2nd antigen, DVD-Ig already saturated with hIL-1β

T2 sequence (P01584 117-269): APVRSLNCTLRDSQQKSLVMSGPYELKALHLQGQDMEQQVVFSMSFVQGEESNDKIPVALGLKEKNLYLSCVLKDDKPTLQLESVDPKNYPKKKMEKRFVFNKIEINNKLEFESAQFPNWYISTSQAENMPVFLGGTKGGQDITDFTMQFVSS

Stoichiometry hIL-1α:DVD-Ig (hIL-1α [1]; hIL-1α injected as 1st antigen): 1.8
Response Unit, 1st antigen hIL-1α (hIL-1α [1]): 209 Response Unit
Response Unit, 2nd antigen hIL-1α (hIL-1α [1]): hIL-1α: 131 Response Unit
Stoichiometry hIL-1α:DVD-Ig (hIL-1α [1]; [5]): 1.2
neutralizing activity against hIL-1α, fold less than that of the chimeric antibodies (hIL-1α [2]): 3 fold
IC50 (hIL-1α [2]): 2.9 nM
neutralizing activity to hIL-1β, fold higher than that of DVD1-Ig (hIL-1β [3]): 3 fold
binding affinity to hIL-1β, fold higher than that of DVD1-Ig (hIL-1β [4]): 3 fold
koff (hIL-1β [4]): 0.00095 s⁻¹
kon (hIL-1β [4]): 1.19e+06 M⁻¹ s⁻¹
Kd (hIL-1β [4]): 0.798 nM
Stoichiometry (hIL-1β [4]): 1.8
B1: DVD2-Ig: DVD-Ig as DVD1-Ig but with linkers ADAAP (light chain) and AKTTPP (heavy chain) (antibody)
VH: MQLSGLTSEDSAMYFCVRFPTGNDYYAMDYWGQGTSVTVSSAKTTPPQIQLVQSGPELKKPGETVKISCKASGYTFRNYGMNWVKQAPGKDLKRMAWINTYTGESTYADDFKGRFAFSLETSASTAYLQINNLKNEDTATYFCARGIYYYGSSYAMDYWGQGTSVTVSS
VL: PVEADDAATYYCQQNNEDPFTFGSGTKLEIKRADAAPNIQMTQTTSSLSASLGDRVTISCRASQDISNCLNWYQQKPDGTVKLLIYYTSRLHSGVPSRFSGSGSGTDYSLTISNLEQEDIATYFCQQGKTLPYAFGGGTKLEINR

Stoichiometry hIL-1α:DVD-Ig (hIL-1α [1]; hIL-1α injected as 1st antigen): 2.3
Response Unit, 1st antigen hIL-1α (hIL-1α [1]): 190 Response Unit
Response Unit, 2nd antigen hIL-1α (hIL-1α [1]): hIL-1α: 107 Response Unit
Stoichiometry hIL-1α:DVD-Ig (hIL-1α [1]; [5]): 1.1
neutralizing activity against hIL-1α, fold less than that of the chimeric antibodies (hIL-1α [2]): 3 fold
IC50 (hIL-1α [2]): 2.3 nM
IC50 (hIL-1β [3]; antigen hIL-1β, read-out: Potency IC50): 3.1 nM
koff (hIL-1β [4]): 0.00159 s⁻¹
kon (hIL-1β [4]): 609000 M⁻¹ s⁻¹
Kd (hIL-1β [4]): 2.6 nM
Stoichiometry (hIL-1β [4]): 1.5
B2: DVD1-Ig: DVD-Ig binding hIL-1α and hIL-1β; VH/VL of 13F5.G5 fused directly to N-terminus of 3D12.E3 VH/VL, no linker (antibody)
VH: MQLSGLTSEDSAMYFCVRFPTGNDYYAMDYWGQGTSVTVSSQIQLVQSGPELKKPGETVKISCKASGYTFRNYGMNWVKQAPGKDLKRMAWINTYTGESTYADDFKGRFAFSLETSASTAYLQINNLKNEDTATYFCARGIYYYGSSYAMDYWGQGTSVTVSS
VL: PVEADDAATYYCQQNNEDPFTFGSGTKLEIKRNIQMTQTTSSLSASLGDRVTISCRASQDISNCLNWYQQKPDGTVKLLIYYTSRLHSGVPSRFSGSGSGTDYSLTISNLEQEDIATYFCQQGKTLPYAFGGGTKLEINRR

Reference: patent US8889130B2, “Treatment of osteoarthritis and pain” (Abbvie Inc., priority 2011, dated 2014)
